# B1: split OGA (N2+C3): split OGA fragments N2 and C3 without nanobody (protein)
# chain 1: MEQKLISEEDLAIAMVQKESQATLEERESELSSNPAASAGASLEPPAAPAPGEDNPAGAGGAAVAGAAGGARRFLCGVVEGFYGRPWVMEQRKELFRRLQKWELNTYLYAPKDDYKHRMFWREMYSVEEAEQLMTLISAAREYEIEFIYAISPGLDITFSNPKEVSTLKRKLDQVSQFGCRSFALLFDDIDHNMCAADKEVFSSFAHAQVSITNEIYQYLGEPETFLFCPTEYCGTFCYPNVSQSPYLRTVGEKLLPGIEVLWTGPKVVSKEIPVESIEEVSKIIKRAPVIWDNIHANDYDQKRLFLGPYKGRSTELIPRLKGVLTNPNCEFEANYVAIHTLATWYKSNMNGVRKDVVMTDSEDSTVSIQIKLENEGSDEDIETDVLYSPQMALKLALTEWLQEFGVPHQYSSR
# chain 2: MAYPYDVPDYAAIAEKPLYTAEPVTLEDLQLLADLFYLPYEHGPKGAQMLREFQWLRANSSVVSVNCKGKDSEKIEEWRSRAAKFEEMCGLVMGMFTRLSNCANRTILYDMYSYVWDIKSIMSMVKSFVQWLGCRSHSSAQFLIGDQEPWAFRGGLAGEFQRLLPIDGANDLFFQPP
# System: O-GlcNAcylated proteome
# Experiment: Quantitative TMT mass spectrometry of enriched O-GlcNAcylated proteome
# Format: cell-based, human
# Details: co-expression of GFP-Sp1, versus N2(D174N)+C3, n=4
# Procedure: Purification of GalT1 (Y289L) enzyme and labeling of O-GlcNAcylated proteins with GalNAz were performed according to the procedure of Hsieh-Wilson and co-workers (Thompson, J. W., Griffin, M. E. & Hsieh-Wilson, L. C. Methods for the Detection, Study, and Dynamic Profiling of O-GlcNAc Glycosylation. Methods Enzymol. 2018, 598, 101-135). Briefly, cell samples in 6-well plates or 15-cm dishes were harvested and washed by PBS once. The lysis buffer (PBS with 2% SDS) was added into cell pellets and heated for 5 min at 95° C., followed by the sonication to sheer DNA. Protein concentrations were determined by BCA assay. Cell lysates were reduced and alkylated with 25 mM DTT at 95° C. for 5 min and 50 mM iodoacetamide at room temperature for 1 h respectively. Proteins were precipitated by the methanol/chloroform solution (aqueous phase:CH3OH:CHCl3=4:4:1) and resuspended in 1% SDS, 20 mM HEPES (pH 7.9) buffer with a concentration of 3.75 mg/mL. For 150 μg proteins, H2O (49 μL), 2.5×GalT labeling buffer (80 μL, final concentrations: 50 mM NaCl, 20 mM HEPES, 2% NP-40, pH 7.9), 100 mM MnCl2 (11 μL), 500 μM UDP-GalNAz (10 μL), 2 mg/mL GalT1 (Y289L) (10 μL) were added into cell lysates orderly. […]
# For quantitative proteomics, after reaction with Biotin-Alkyne probe, proteins were precipitated and resuspended in 400 μL PBS containing 2% SDS. […]
molecule,measurement,value
B1,global O-GlcNAc proteome versus inactive form,no significant difference from that of the inactive form
